From patent US20240043542A1 (published 2024)
Read-outs that look alike come from different tables or passages of the source. One block for each binder: values may come before it.

Columns and labels:
[1] = target: T1, mouse B7-H4 (recombinant, BLI) (mouse, UniProt Q7TSP5 29-256, limits assumed); experiment: BLI, antigen on Protein A tips;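 note: Anti-B7-H4 antibodies assessed for affinity toward the B7-H4 extracellular domain using biolayer interferometry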
T1 construct: also called murine B7-H4
T1 sequence: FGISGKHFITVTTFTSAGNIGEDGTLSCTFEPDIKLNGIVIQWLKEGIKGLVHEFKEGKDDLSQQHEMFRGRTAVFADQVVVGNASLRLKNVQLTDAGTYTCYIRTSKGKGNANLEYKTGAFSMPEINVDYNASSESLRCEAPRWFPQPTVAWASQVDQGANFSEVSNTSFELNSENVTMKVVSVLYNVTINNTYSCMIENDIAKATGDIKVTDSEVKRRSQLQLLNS
Protocol: (§1) Binding affinities of anti-B7-H4 antibodies to B7-H4-extracellular domain (ECD) were determined by biolayer interferometry (BLI). […] Anti-B7-H4 antibodies were then evaluated for binding.

[2] = target: T2, cynomolgus monkey B7-H4 (recombinant, BLI) (cynomolgus monkey, UniProt Q7Z7D3 25-259 (human entry)); experiment: BLI, antigen on Protein A tips;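 note: Anti-B7-H4 antibodies assessed for affinity toward the B7-H4 extracellular domain using biolayer interferometry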
T2 construct: also called Cynomolgus B7-H4
T2 sequence: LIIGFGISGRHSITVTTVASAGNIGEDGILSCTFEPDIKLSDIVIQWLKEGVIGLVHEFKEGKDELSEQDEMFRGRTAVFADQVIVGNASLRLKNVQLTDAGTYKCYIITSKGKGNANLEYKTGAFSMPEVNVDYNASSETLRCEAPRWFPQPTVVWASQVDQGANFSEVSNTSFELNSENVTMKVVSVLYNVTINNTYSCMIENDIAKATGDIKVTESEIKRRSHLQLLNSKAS
Protocol: as §1

[3] = target: T3, recombinant human B7-H4-huIgG1 (human); experiment: BLI, antigen on Protein A tips;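 note: Anti-B7-H4 antibodies assessed for affinity toward the B7-H4 extracellular domain using biolayer interferometry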
T3 construct: also called B7-H4-extracellular domain (ECD)
Protocol: as §1

[4] = target: T4, mouse B7-H4 on the cell surface (mouse, UniProt Q7TSP5 25-257); experiment: flow cytometry, 100 nM, transfected HEK293T
T4 construct: full-length, on transfected HEK293T cells
T4 sequence: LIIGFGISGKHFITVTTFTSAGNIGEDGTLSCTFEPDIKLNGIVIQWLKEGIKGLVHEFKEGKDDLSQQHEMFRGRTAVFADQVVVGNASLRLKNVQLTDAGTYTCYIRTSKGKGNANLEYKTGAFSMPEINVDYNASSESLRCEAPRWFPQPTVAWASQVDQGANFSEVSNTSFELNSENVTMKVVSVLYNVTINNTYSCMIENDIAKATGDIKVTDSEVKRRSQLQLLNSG
Protocol: (§2) HEK293T cell lines were transfected to express full-length human, cynomolgus monkey, mouse, or rat B7-H4. In addition, the endogenous human B7-H4 expressing SK-BR-3 breast cancer cell line was used to assess the ability of the antibodies to bind B7-H4 expressed on the cell surface. 1×10⁵ parental HEK293T or transfected HEK293T cell lines were incubated with 100 nM of the B7-H4 antibodies. Following incubation, cells were pelleted, washed, and incubated with a secondary labeling antibody, and samples were acquired on a flow cytometer. Fold binding over the parental cell line (FOP) was calculated as follows: MFI transfected HKE293T cells/MFI parental HEK293T cells.

[5] = target: T5, human B7-H4 on the cell surface (human, UniProt Q7Z7D3 25-282); experiment: flow cytometry, 100 nM, transfected HEK293T
T5 construct: full-length human B7-H4 on transfected HEK293T cells or endogenous on SK-BR-3 cells; also called SK-BR-3 (endogenous human B7-H4)
T5 sequence: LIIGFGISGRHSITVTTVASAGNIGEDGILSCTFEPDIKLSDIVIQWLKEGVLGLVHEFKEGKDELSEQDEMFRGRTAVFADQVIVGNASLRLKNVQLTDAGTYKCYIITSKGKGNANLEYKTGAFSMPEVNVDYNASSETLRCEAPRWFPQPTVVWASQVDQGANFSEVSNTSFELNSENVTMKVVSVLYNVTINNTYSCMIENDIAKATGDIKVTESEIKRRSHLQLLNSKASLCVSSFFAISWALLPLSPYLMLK
Protocol: as §2

[6] = target: T6, cynomolgus monkey B7-H4 on the cell surface (cynomolgus monkey, UniProt Q7Z7D3 25-282 (human entry)); experiment: flow cytometry, 100 nM, transfected HEK293T
T6 construct: full-length, on transfected HEK293T cells
T6 chain: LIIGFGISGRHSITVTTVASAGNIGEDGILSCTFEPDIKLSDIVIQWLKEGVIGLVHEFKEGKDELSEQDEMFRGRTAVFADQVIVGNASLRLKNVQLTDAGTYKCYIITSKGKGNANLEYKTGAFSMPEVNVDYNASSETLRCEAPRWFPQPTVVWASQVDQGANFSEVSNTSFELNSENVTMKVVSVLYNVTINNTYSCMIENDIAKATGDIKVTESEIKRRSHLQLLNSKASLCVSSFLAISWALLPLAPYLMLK
Protocol: as §2

[7] = target: T5, human B7-H4 on the cell surface; experiment: flow cytometry, SK-BR-3 cells
Protocol: (§3) Following incubation, cells were pelleted, washed and incubated with a secondary labeling antibody and samples were acquired on a flow cytometer. Data was analyzed using the FlowJo software and MFI was plotted vs. antibody concentration. The EC50 cell binding potency was calculated using nonlinear regression curve fit (GraphPad Prism).

[8] = target: T4, mouse B7-H4 on the cell surface; experiment: flow cytometry, transfected 293 cells
Protocol: as §3

[9] = target: T6, cynomolgus monkey B7-H4 on the cell …; experiment: flow cytometry, transfected 293 cells
Protocol: as §3

[10] = target: T5, human B7-H4 on the cell surface; experiment: cell-based or functional assay
B7-H4 IgV-huIgG1 = target: T7, B7-H4 IgV-huIgG1 (human); experiment: SPR, antibody captured by anti-human Fab, antigen in flow
T7 construct: also called N-terminal domain of human B7-H4
Protocol: Briefly, anti-human Fab antibody was immobilized on a carboxyl-derivatized SPR chip surface, and anti-B7-H4 antibodies were captured on the resulting surface at 5 ug/ml for 30 seconds.

[11] = target: T5, human B7-H4 on the cell surface; experiment: cell-based or functional assay; remark: listed apart in the source
[12] = target: T8, rat B7-H4 on the cell surface (rat, UniProt Q501W4 25-257); experiment: flow cytometry, transfected 293 cells
T8 construct: full-length, on transfected HEK293T cells
T8 sequence: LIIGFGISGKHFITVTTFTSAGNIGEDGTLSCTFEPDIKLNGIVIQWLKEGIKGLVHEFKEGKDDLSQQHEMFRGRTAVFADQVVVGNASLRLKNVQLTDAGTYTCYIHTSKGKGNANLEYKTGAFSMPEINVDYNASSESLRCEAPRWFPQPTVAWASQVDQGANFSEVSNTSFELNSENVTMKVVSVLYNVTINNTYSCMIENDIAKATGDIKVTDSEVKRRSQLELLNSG
Protocol: as §3

B1: B7-H4 antibody 15472 (antibody, human IgG1, kappa, V domains shown)
VH: EVQLLESGGGLVQPGGSLRLSCAASGFTFSSYAMSWVRQAPGKGLEWVSTISGSGGSTYYADSVKGRFTISRDNSKNTLYLQMNSLRAEDTAVYYCARGAGHYDLVGRYWGQGTLVTVSS
VL: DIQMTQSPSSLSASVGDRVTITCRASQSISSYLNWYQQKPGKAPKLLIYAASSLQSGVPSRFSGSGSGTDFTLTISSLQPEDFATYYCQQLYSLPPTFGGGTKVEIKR
notes: human IgG1/kappa
Kd [1]: 38 nM | koff [1]: 0.016 s⁻¹ | kon [1]: 422000 M⁻¹ s⁻¹ | Kd [2]: 7.8 nM | koff [2]: 0.00582 s⁻¹ | kon [2]: 746000 M⁻¹ s⁻¹ | Kd [3]: 7.11 nM | koff [3]: 0.00497 s⁻¹ | kon [3]: 700000 M⁻¹ s⁻¹ | FOP (fold binding over the parental cell line) [4]: 685 fold | FOP (fold binding over the parental cell line) [5]: 580 fold | FOP (fold binding over the parental cell line) [6]: 1280 fold | EC50 [7]: 8.86 nM

B3: B7-H4 antibody 15489 (antibody, human IgG1, kappa, V domains shown)
VH: QVQLQESGPGLVKPSETLSLTCTVSGGSISSYYWSWIRQPPGKGLEWIGYIYSSGSTNYNPSLKSRVTISVDTSKNQFSLKLSSVTAADTAVYYCARGSGQYAAPDYGMDVWGQGTTVTVSS
VL: DIQMTQSPSTLSASVGDRVTITCRASQSISSWLAWYQQKPGKAPKLLIYKASSLESGVPSRFSGSGSGTEFTLTISSLQPDDFATYYCQQDNSFPFTFGGGTKVEIKR
notes: human IgG1/kappa
EC50 [8]: 17.5 nM | Kd (B7-H4 IgV-huIgG1): 23.7 nM | Kd [1]: 201 nM | Kd [2]: 72.1 nM | Kd [3]: 63.7 nM | Donor 1 Max IFNγ [11]: 82.5 pg/mL | Donor 2 Max IFNγ [11]: 96.6 pg/mL | Donor 3 Max IFNγ [11]: 1130 pg/mL | Donor 4 Max IFNγ [11]: 800 pg/mL | aAPC Assay EC50 (IFNγ production) [11]: 291 nM | EC50 [7]: 31.7 nM

B4: B7-H4 antibody 20500 (antibody, human IgG1, kappa, V domains shown)
VH: QLQLQESGPGLVKPSETLSLTCTVSGGSIKSGSHYWGWIRQPPGKGLEWIGNIYYSGSTYYNPSLRSRVTISVDTSKNQFSLKLSSVTAADTAVYYCAREGSYPNWFDPWGQGTLVTVSS
VL: EIVMTQSPATLSVSPGERATLSCRASQSVSSNLAWYQQKPGQAPRLLIYGASTRATGIPARFSGSGSGTEFTLTISSLQSEDFAVYYCQQYHSFPFTFGGGTKVEIKR
notes: human IgG1/kappa
EC50 [8]: 4 nM | EC50 [9]: 3.38 nM | EC50 [12]: 1.14 nM | Donor 1 Max IFNγ [10]: 821 pg/mL | Donor 2 Max IFNγ [10]: 274 pg/mL | Donor 3 Max IFNγ [10]: 118 pg/mL | Donor 4 Max IFNγ [10]: 4030 pg/mL | aAPC Assay EC50 (IFNγ production) [10]: 0.84 nM | Kd [1]: 8.25 nM | koff [1]: 0.00336 s⁻¹ | kon [1]: 408000 M⁻¹ s⁻¹ | Kd [2]: 5.47 nM | koff [2]: 0.00229 s⁻¹ | kon [2]: 418000 M⁻¹ s⁻¹ | Kd [3]: 5.97 nM | koff [3]: 0.00233 s⁻¹ | kon [3]: 391000 M⁻¹ s⁻¹ | FOP (fold binding over the parental cell line) [4]: 478 fold | FOP (fold binding over the parental cell line) [5]: 182 fold | FOP (fold binding over the parental cell line) [6]: 630 fold | EC50 [7]: 1.54 nM

B7: B7-H4 antibody 15483 (antibody, human IgG1, kappa, V domains shown)
VH: QVQLQESGPGLVKPSQTLSLTCTVSGGSISSGGYYWSWIRQHPGKGLEWIGNIYYSGSTYYNPSLKSRVTISVDTSKNQFSLKLSSVTAADTAVYYCARGLSTIDEAFDPWGQGTLVTVSS
VL: not shown
notes: human IgG1/kappa
EC50 [8]: 8.82 nM | Kd (B7-H4 IgV-huIgG1): 18.4 nM | Kd [1]: 263 nM | Kd [2]: 108 nM | Donor 1 Max IFNγ [11]: 93.2 pg/mL | Donor 2 Max IFNγ [11]: 87.8 pg/mL | Donor 3 Max IFNγ [11]: 1380 pg/mL | Donor 4 Max IFNγ [11]: 939 pg/mL | aAPC Assay EC50 (IFNγ production) [11]: 729 nM | EC50 [7]: 14.8 nM

Now from value to binder:

EC50 [8]: 6.7 nM | EC50 [9]: 7.91 nM | Donor 1 Max IFNγ [10]: 186 pg/mL | Kd [1]: 24.6 nM | koff [1]: 0.0171 s⁻¹ | kon [1]: 692000 M⁻¹ s⁻¹ | Kd [2]: 0.721 nM | koff [2]: 0.000569 s⁻¹ | kon [2]: 790000 M⁻¹ s⁻¹ | Kd [3]: 0.805 nM | koff [3]: 0.000555 s⁻¹ | kon [3]: 689000 M⁻¹ s⁻¹ | FOP (fold binding over the parental cell line) [4]: 604 fold | FOP (fold binding over the parental cell line) [5]: 179 fold | FOP (fold binding over the parental cell line) [6]: 758 fold | EC50 [7]: 7.6 nM
B2: B7-H4 antibody 20496 (antibody, human IgG1, kappa, V domains shown)
VH: QLQLQESGPGLVKPSETLSLTCTVSGGSISSSVYYWSWIRQPPGKGLEWIGSILVSGSTYYNPSLKSRVTISVDTSKNQFSLKLSSVTAADTAVYYCARAVSFLDVWGQGTMVIVSS
VL: DIQMTQSPSSLSASVGDRVTITCRASQSISSYLNWYQQKPGKAPKLLIYGASSLQSGVPSRFSGSGSGTDFTLTISSLQPEDFATYYCQQSYDPPWTFGGGTKVEIKR
notes: human IgG1/kappa

Kd (B7-H4 IgV-huIgG1): 2.03 nM | koff (B7-H4 IgV-huIgG1): 0.000361 s⁻¹ | kon (B7-H4 IgV-huIgG1): 178000 M⁻¹ s⁻¹ | Kd [1]: 3.4 nM | koff [1]: 0.00213 s⁻¹ | kon [1]: 632000 M⁻¹ s⁻¹ | Kd [2]: 1.2 nM | koff [2]: 0.00112 s⁻¹ | kon [2]: 962000 M⁻¹ s⁻¹ | Kd [3]: 1.2 nM | koff [3]: 0.00115 s⁻¹ | kon [3]: 936000 M⁻¹ s⁻¹
B5: B7-H4 antibody 20502 (antibody, V domains shown)
VH: QLQLQESGPGLVKPSETLSLTCTVSGGSIKSGSYYWGWIRQPPGKGLEWIGNIYYSGSTYYNPSLRSRVTISVDTSKNQFSLKLSSVTAADTAVYYCAREGSYPNQFDPWGQGTLVTVSS
VL: EIVMTQSPATLSVSPGERATLSCRASQSVSSNLAWYQQKPGQAPRLLIYGASTRATGIPARFSGSGSGTEFTLTISSLQSEDFAVYYCQQYHSFPFTFGGGTKVEIKR
notes: human IgG1/kappa

EC50 [8]: 4.67 nM | EC50 [9]: 3.89 nM | EC50 [12]: 1.15 nM | Donor 1 Max IFNγ [10]: 850 pg/mL | Donor 2 Max IFNγ [10]: 310 pg/mL | Donor 3 Max IFNγ [10]: 136 pg/mL | Donor 4 Max IFNγ [10]: 4490 pg/mL | aAPC Assay EC50 (IFNγ production) [10]: 0.79 nM | Kd [1]: 3.35 nM | koff [1]: 0.00375 s⁻¹ | kon [1]: 1.12e+06 M⁻¹ s⁻¹ | Kd [2]: 2.42 nM | koff [2]: 0.00246 s⁻¹ | kon [2]: 1.02e+06 M⁻¹ s⁻¹ | Kd [3]: 2.56 nM | koff [3]: 0.00251 s⁻¹ | kon [3]: 980000 M⁻¹ s⁻¹ | FOP (fold binding over the parental cell line) [4]: 546 fold | FOP (fold binding over the parental cell line) [5]: 205 fold | FOP (fold binding over the parental cell line) [6]: 728 fold | EC50 [7]: 1.9 nM
B6: B7-H4 antibody 20501 (antibody, human IgG1, kappa, V domains shown)
VH: QLQLQESGPGLVKPSETLSLTCTVSGGSIKSGSHYWGWIRQPPGKGLEWIGNIYYSGSTYYNPSLKSRVTISVDTSKNQFSLKLSSVTAADTAVYYCAREGSYPNWLDPWGQGTLVTVSS
VL: EIVMTQSPATLSVSPGERATLSCRASQSVSSNLAWYQQKPGQAPRLLIYGASTRATGIPARFSGSGSGTEFTLTISSLQSEDFAVYYCQQYHSFPFTFGGGTKVEIKR
notes: human IgG1/kappa
